Data on four molecules can be found in publication PMC12319226 (Frontiers in Bioinformatics, 2025).

B1: mAb 1E6 (human) (antibody, V domains shown)
VH: EVQLVQSGAEVKKPGSSVKVSCKASGGTVIDYPITWVRQAPGQGLEWVGGFVPLFRTSNYGQKFQGRVTITADKSTSTASMELNSLTSEDTAIYYCARGDTAMGPFDYWGQGTLVTVSS
VL: SYVLTQPPSLSVAPGKTATLTCGGNNIAGKTVHWYQQRPGQAPVLVISYDSDRPSGIPERFSGSNSANTATLTISRVEAGDEADYYCQVWDRNSDHWVFGGGTKLTVL
notes: source: Expi293, purified (MabSelect SuRe, SEC); copies: 2 + 2
B2: mAb 4B3 (human) (antibody, V domains shown)
VH: QVQLVQSGGGLVKPGGSLRLSCAASGFPFSSYYMSWIRQAPGKGLEWVSDINNSGNVKEYADFVKGRLTISRDNVKNSMYLHMNSLRVEDTAVYYCARNRGRFDVWGQGTLVTVSA
VL: EIVMTQSPGTLSLSPGETATLSCRASQMISSPFLAWYQQRRGQAPRLLIYGASTRATDTPDRFRGSGSGTDFILTISRLEPEDFAVYYCQYYDDSPFTFGQGTKLEIK
notes: also called 4B3-2; source: Expi293, purified (MabSelect SuRe, SEC); copies: 2 + 2
B3: chimeric antibody hJAR5 (antibody, V domains shown)
VH: QVQMQQPGAELVKPGASVKLSCKASGYTFISYWMHWVKQRPGRGLEWIGRIAPDTGIIYYNEKFKNKATLTVDTPSSTAYMQLNSLTSEDSAVYYCARYLKYDGSTYRFDYWGQGTTLTVSS
VL: DIVMTQAAPSVPVTPGESVSISCRSSKSLLHSNGNTYLFWFLQRPGQSPQLLIYRMSNLASGVPDRFSGSGSGTSFTLRISRVEAEDVGVYYCMQHLEYPYTFGGGTKLEIK
notes: also called hJAR5-2; humanized JAR5; source: Expi293, purified (MabSelect SuRe, SEC); copies: 2 + 2
B4: chimeric antibody h12C1 (antibody, V domains shown)
VH: QVQLQESGPELVKPGASVKISCKASGYSFSDYNMSWVKQSNGKSLEWIGIIDPKYGTINYNQKFKGKATLTVDQASSTAYMQLNSLTSEDSAVYYCVRDYYGSSYFDYWGQGTTLTVSS
VL: DIVLTQSPSSIYASLGERVTLTCKASQDIHNYLNWFQQKPGKSPKTLIYRANRLVDGVPSRFSGGGSGQDYSLTISSLEFEDIGIYYCLQYDEFPPTFGGGTRLEIK
notes: also called humanized 12C1; source: Expi293, purified (MabSelect SuRe, SEC); copies: 2 + 2

A word on the Kd: it is the equilibrium constant for the complex coming apart. A lower Kd goes with a tighter complex. For orientation: koff means a measure of how fast the partners let go of each other. A high value points to fast dissociation. By kon is commonly meant a measure of how fast the partners come together. Read a high kon as faster complex formation.

Changes are numbered by the printed parent chain. “And” between values parts separate entries of the source, which are not always exact repeats. Equal values may be shown once.

In one assay the target is T1, fHbp mutant 0024 (Neisseria meningitidis, fHbp v3.28 …, point mutant).
T1 chain: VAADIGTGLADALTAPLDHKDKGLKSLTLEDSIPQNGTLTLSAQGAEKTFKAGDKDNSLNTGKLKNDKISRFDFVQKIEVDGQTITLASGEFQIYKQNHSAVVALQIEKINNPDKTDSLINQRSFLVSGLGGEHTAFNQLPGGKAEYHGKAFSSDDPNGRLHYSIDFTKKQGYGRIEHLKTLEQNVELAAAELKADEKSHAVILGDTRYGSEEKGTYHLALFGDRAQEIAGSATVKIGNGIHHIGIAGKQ
Put plainly: BLI. To be noted: both partners purified.
Regarding B1, the Kd amounted to 0.369 nM, the koff stood at 0.000271 s⁻¹ and the kon was determined as 734700 ± 2210 M⁻¹ s⁻¹.
The like results for B2 were, in that order, 1.48 nM, 0.000969 s⁻¹ and 655000 ± 3130 M⁻¹ s⁻¹.

Another assay addresses T2, fHbp mutant 0021 (Neisseria meningitidis, fHbp v3.28 …, point mutant).
T2 chain: T1 chain with Q122K, S124Q, L126R, N239E, G240K, I241V, H243E
Put plainly: BLI. To be noted: both partners purified.
Molecule B1 had a Kd of 0.654 nM, a koff of 0.000333 s⁻¹ and a kon of 508900 ± 2640 M⁻¹ s⁻¹.
The like results for B2 were, in that order, 1.82 nM, 0.00084 s⁻¹ and 460100 ± 2250 M⁻¹ s⁻¹.

The next assay addresses T3, fHbp m001928 (Neisseria meningitidis; fHbp …, chimera).
T3 chain: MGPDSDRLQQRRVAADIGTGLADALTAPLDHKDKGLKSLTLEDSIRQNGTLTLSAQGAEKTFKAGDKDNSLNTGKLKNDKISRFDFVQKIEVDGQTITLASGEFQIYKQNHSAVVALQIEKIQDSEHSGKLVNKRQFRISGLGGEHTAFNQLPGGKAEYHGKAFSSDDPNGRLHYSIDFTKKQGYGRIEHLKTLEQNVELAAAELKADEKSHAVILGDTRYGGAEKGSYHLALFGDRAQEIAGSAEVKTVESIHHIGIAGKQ
Put plainly: BLI. To be noted: both partners purified.
For the molecule B1, the dissociation constant (Kd) is 0.174 nM, the koff stood at 0.000163 s⁻¹ and the kon came to 937300 ± 2910 M⁻¹ s⁻¹.
B3 showed a Kd of 0.741 nM.
As to B4, the affinity, expressed as Kd, was 55.3 nM; the koff worked out at 0.0146 s⁻¹; the kon was determined as 264000 ± 5240 M⁻¹ s⁻¹.
The like results for B2 were, in that order, 4.25 nM, 0.00106 s⁻¹ and 248300 ± 1560 M⁻¹ s⁻¹.

A further assay concerns the target T4, fHbp m002392 (Neisseria meningitidis; fHbp …, chimera).
T4 chain: T3 chain with G222N, T249S, E251V, S252G
The assay can be described thus: BLI. To be noted: both partners purified.
In the case of B1, the Kd came out at 0.515 nM, the koff was 0.000157 s⁻¹ and the kon worked out at 305400 ± 1880 M⁻¹ s⁻¹.
On to B3, for which the Kd is 0.711 nM and 0.689 nM.
B4: the affinity, expressed as Kd, was 0.892 nM; the koff stood at 0.000212 s⁻¹; the kon amounted to 237100 ± 1550 M⁻¹ s⁻¹.
B2: the Kd came to 2.95 nM, the koff was 0.00106 s⁻¹ and the kon was 359400 ± 1640 M⁻¹ s⁻¹.

For a further assay, the target named is T5, fHbp m002252 (Neisseria meningitidis; fHbp …, chimera).
T5 chain: T3 chain with G222N, G223Q
The assay can be described thus: BLI. To be noted: both partners purified.
With B1, the Kd is 0.133 nM, the koff stood at 4.06e-05 s⁻¹ and the kon turned out to be 304600 ± 2710 M⁻¹ s⁻¹.
Regarding B3, the Kd stood at 5.07 nM.
Consider B4, for which the Kd was 0.269 nM, the koff worked out at 4.04e-05 s⁻¹ and the kon came out at 150400 ± 1270 M⁻¹ s⁻¹.
The molecule B2 registered a Kd of 1.27 nM, a koff of 0.000415 s⁻¹ and a kon of 327400 ± 2090 M⁻¹ s⁻¹.

Another assay concerns the target T6, fHbp m002332 (Neisseria meningitidis; fHbp …, chimera).
T6 chain: T3 chain with G222N, G223S, S252G
Put plainly: BLI. The note with it: both partners purified.
The molecule B1 gave a Kd of 0.708 nM, a koff of 0.000264 s⁻¹ and a kon of 373200 ± 1990 M⁻¹ s⁻¹.
In turn, B3 had a Kd of 0.662 nM.
Molecule B4 displayed a Kd of 1.19 nM, a koff of 0.000253 s⁻¹ and a kon of 212700 ± 1530 M⁻¹ s⁻¹.
In turn, B2 registered a Kd of 4.04 nM, a koff of 0.00118 s⁻¹ and a kon of 291800 ± 1150 M⁻¹ s⁻¹.

The next assay has as its target T7, fHbp m002416 (Neisseria meningitidis, designed fHbp …, chimera).
T7 construct: also called fHbp 2,416; Round 2 best mutant
T7 chain: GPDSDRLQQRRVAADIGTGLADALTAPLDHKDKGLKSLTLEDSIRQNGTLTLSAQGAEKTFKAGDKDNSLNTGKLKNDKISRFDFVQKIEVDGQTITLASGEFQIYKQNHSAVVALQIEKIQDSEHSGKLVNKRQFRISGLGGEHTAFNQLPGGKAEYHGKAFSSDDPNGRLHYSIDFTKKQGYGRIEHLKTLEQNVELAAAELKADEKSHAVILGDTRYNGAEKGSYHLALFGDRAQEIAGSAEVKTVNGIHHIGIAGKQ
The assay can be described thus: BLI. To be noted: both partners purified.
The molecule B1 came in with a koff of 0.000104 s⁻¹ and a kon of 322000 ± 2420 M⁻¹ s⁻¹.
For B4 the same measures were 5.89e-05 s⁻¹ and 201100 ± 1150 M⁻¹ s⁻¹.
For B2 the same measures were 0.00113 s⁻¹ and 296100 ± 925 M⁻¹ s⁻¹.

A further assay has as its target T8, fHbp m001935 (Neisseria meningitidis; fHbp …, chimera).
T8 chain: T3 chain with E251V, S252A
The assay can be described thus: BLI. To be noted: both partners purified.
As for B1, the affinity, expressed as Kd, was 0.131 nM; the koff turned out to be 5.4e-05 s⁻¹; the kon turned out to be 412500 ± 2300 M⁻¹ s⁻¹.
Molecule B3 displayed a Kd of 0.401 nM.
Turning to B4, the Kd worked out at 18.9 nM, the koff is 0.00626 s⁻¹ and the kon is 330500 ± 3080 M⁻¹ s⁻¹.
For B2 the same measures were 2.34 nM, 0.000973 s⁻¹ and 415300 ± 2100 M⁻¹ s⁻¹.

In another assay the target is T9, fHbp m002335 (Neisseria meningitidis; fHbp …, chimera).
T9 chain: T3 chain with G222N, G223S, E251N, S252G
The assay can be described thus: BLI. The note with it: both partners purified.
Take B1: the Kd was found to be 0.137 nM, the koff is 0.000102 s⁻¹ and the on-rate constant (kon) is 744000 ± 3230 M⁻¹ s⁻¹.
B3 yielded a Kd of 0.883 nM.
Molecule B4 displayed a Kd of 0.235 nM, a koff of 8.01e-05 s⁻¹ and a kon of 340700 ± 1750 M⁻¹ s⁻¹.
In the case of B2, binding was put at a Kd of 5.08 nM, the koff turned out to be 0.00109 s⁻¹ and the kon was found to be 214100 ± 1500 M⁻¹ s⁻¹.
